Laboratory results reported in patent US20170334954A1.
One block for each substance: values may come before it.

Columns and labels:
[1] = target: human polyclonal IgG (Gammanorm) (human); assay: column 10% breakthrough capacity, ligand on agarose beads, ligand content 9.7 mg/ml; after six 4 h cycles in 1.0 M NaOH
[2] = target: human polyclonal IgG (Gammanorm) (human); assay: column 10% breakthrough capacity, ligand on agarose beads, ligand content 9.7 mg/ml, 6 min residence time; before NaOH
[3] = target: human polyclonal IgG (Gammanorm) (human); assay: column 10% breakthrough capacity, ligand content 9.7 mg/ml; 1.0 M NaOH; ratio to reference Zvar4
[4] = target: human polyclonal IgG (Gammanorm) (human); assay: column 10% breakthrough capacity, ligand on agarose beads, ligand content 9.7 mg/ml; after 24 h in 0.5 M NaOH
[5] = target: human polyclonal IgG (Gammanorm) (human); assay: column 10% breakthrough capacity, ligand content 9.7 mg/ml; 0.5 M NaOH; ratio to reference Zvar4
[6] = target: human polyclonal IgG (Gammanorm) (human); assay: column 10% breakthrough capacity, ligand on agarose beads, ligand content 9.7 mg/ml, 6 min residence time; before NaOH; remark: listed apart in the source
[7] = target: human polyclonal IgG (Gammanorm) (human); assay: column 10% breakthrough capacity, ligand on agarose beads, ligand content 7.0 mg/ml; after 24 h in 0.5 M NaOH
[8] = target: human polyclonal IgG (Gammanorm) (human); assay: column 10% breakthrough capacity, ligand on agarose beads, ligand content 7.0 mg/ml, 6 min residence time; before NaOH
[9] = target: human polyclonal IgG (Gammanorm) (human); assay: column 10% breakthrough capacity, ligand content […]; 0.5 M NaOH; ratio to reference Zvar4
[10] = target: human polyclonal IgG (Gammanorm) (human); assay: column 10% breakthrough capacity, ligand content 7.0 mg/ml; 0.5 M NaOH; ratio to reference Zvar4
[11] = target: human polyclonal IgG (Gammanorm) (human); assay: column 10% breakthrough capacity, ligand on agarose beads, ligand content […]; after 24 h in 0.5 M NaOH
[12] = target: human polyclonal IgG (Gammanorm) (human); assay: column 10% breakthrough capacity, ligand on agarose beads, ligand content […], 6 min residence time; before NaOH
[13] = target: human polyclonal IgG (Gammanorm) (human); assay: column 10% breakthrough capacity, ligand content 7.2 mg/ml; 0.5 M NaOH; ratio to reference Zvar4
[14] = target: human polyclonal IgG (Gammanorm) (human); assay: column 10% breakthrough capacity, ligand on agarose beads, ligand content […], 6 min residence time; before NaOH; remark: listed apart in the source
[15] = target: human polyclonal IgG (Gammanorm) (human); assay: column 10% breakthrough capacity, ligand on agarose beads, ligand content 7.2 mg/ml; after 24 h in 0.5 M NaOH
[16] = target: human polyclonal IgG (Gammanorm) (human); assay: column 10% breakthrough capacity, ligand content […]; 1.0 M NaOH; ratio to reference Zvar4
[17] = target: human polyclonal IgG (Gammanorm) (human); assay: column 10% breakthrough capacity, ligand on agarose beads, ligand content […]; after six 4 h cycles in 1.0 M NaOH
[18] = target: human polyclonal IgG (Gammanorm) (human); assay: column 10% breakthrough capacity, ligand on agarose beads, ligand content 7.2 mg/ml, 6 min residence time; before NaOH
[19] = target: human polyclonal IgG (Gammanorm) (human); assay: column 10% breakthrough capacity, ligand on agarose beads, ligand content 10.8 mg/ml, 6 min residence time; before NaOH
[20] = target: human polyclonal IgG (Gammanorm) (human); assay: column 10% breakthrough capacity, ligand content 10.8 mg/ml; 0.5 M NaOH; ratio to reference Zvar4
[21] = target: human polyclonal IgG (Gammanorm) (human); assay: column 10% breakthrough capacity, ligand on agarose beads, ligand content 10.8 mg/ml; after 24 h in 0.5 M NaOH

Remaining IgG capacity Qb10 after six 4 h cycles [1]: 48.1 mg/mL
Remaining IgG capacity after six 4 h cycles (%) [1]: 77%
Initial IgG capacity Qb10 [2]: 56.3 mg/mL
Capacity retention relative to ref. after six 4 h cycles [3]: 1.44
Remaining IgG capacity Qb10 after six 4 h cycles [4]: 52 mg/mL
Remaining IgG capacity after six 4 h cycles (%) [4]: 92%
Capacity retention relative to ref. after six 4 h cycles [5]: 1.53
Initial IgG capacity Qb10 [6]: 62.1 mg/mL
Substance: Zvar(N11K, H18K, S33K, D37E, A42R, N43A, L44I, K50R, L51Y)4 with an additional N-terminal cysteine (agarose bead ligand) (designed binder)

Remaining IgG capacity Qb10 after six 4 h cycles [7]: 44.1 mg/mL
Remaining IgG capacity after six 4 h cycles (%) [7]: 90%
Initial IgG capacity Qb10 [8]: 49.1 mg/mL
Capacity retention relative to ref. after six 4 h cycles [9]: 1.31
Capacity retention relative to ref. after six 4 h cycles [10]: 1.5
Remaining IgG capacity Qb10 after six 4 h cycles [11]: 46.2 mg/mL
Remaining IgG capacity after six 4 h cycles (%) [11]: 93%
Initial IgG capacity Qb10 [12]: 50 mg/mL
Substance: Zvar(Q9A, N11E, N28A, N43A)4 with an additional N-terminal cysteine (agarose bead ligand) (designed binder)

Capacity retention relative to ref. after six 4 h cycles [13]: 1.5
Capacity retention relative to ref. after six 4 h cycles [9]: 1.34
Remaining IgG capacity Qb10 after six 4 h cycles [11]: 53.6 mg/mL
Remaining IgG capacity after six 4 h cycles (%) [11]: 95%
Initial IgG capacity Qb10 [12]: 56.3 mg/mL
Initial IgG capacity Qb10 [14]: 60.3 mg/mL
Remaining IgG capacity Qb10 after six 4 h cycles [15]: 44.2 mg/mL
Remaining IgG capacity after six 4 h cycles (%) [15]: 90%
Capacity retention relative to ref. after six 4 h cycles [16]: 1.67
Remaining IgG capacity Qb10 after six 4 h cycles [17]: 56 mg/mL
Remaining IgG capacity after six 4 h cycles (%) [17]: 93%
Initial IgG capacity Qb10 [18]: 49 mg/mL
Substance: Zvar(Q9A, N11E, Q40V, A42K, N43A, L44I)4 with an additional N-terminal cysteine (agarose bead ligand) (designed binder)

Initial IgG capacity Qb10 [19]: 56.9 mg/mL
Capacity retention relative to ref. after six 4 h cycles [20]: 1.3
Remaining IgG capacity Qb10 after six 4 h cycles [21]: 52.5 mg/mL
Remaining IgG capacity after six 4 h cycles (%) [21]: 92%
Substance: Zvar(Q9A, N11K, H18K, D37E, A42R)4 with an additional N-terminal cysteine (agarose bead ligand) (designed binder)
